Measured values from patent US20250282872A1 (ANAPTYSBIO, published 2025).
Blank lines part the entries; values can stand above or below the molecule they belong to.

Assays:
[1] = molecular target: cynomolgus monkey BTLA on cells (cynomolgus monkey); experiment: flow cytometry dot plot, cynomolgus monkey lysed whole blood, CD3 (PerCP Cy5.5) against BTLA (APC), 33 nM antibody
[2] = molecular target: T1, BTLA-ECD, purified recombinant (Example 19)
T1 sequence (Q7Z6A9 31-157, species assumed, looked up): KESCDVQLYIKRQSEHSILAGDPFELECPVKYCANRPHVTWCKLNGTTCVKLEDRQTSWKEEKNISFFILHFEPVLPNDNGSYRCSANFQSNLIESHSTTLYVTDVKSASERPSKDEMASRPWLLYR

[3] = molecular target: β-galactosidase enzyme donor (ED)-tagged human BTLA on Jurkat cells (human, UniProt Q7Z6A9 31-289); experiment: cell-based or functional assay
[4] = molecular target: T2, cynomolgus monkey BTLA on cells (cynomolgus monkey, UniProt A0A2K5W7M7 31-289); experiment: flow cytometry on cynomolgus monkey whole blood, staining of CD20+ B cells against CD3+ T cells
T2 construct: whole, on cells; also called 293c18 clone 1G5; BTLA on cynomolgus monkey peripheral blood T and B cells
T2 sequence: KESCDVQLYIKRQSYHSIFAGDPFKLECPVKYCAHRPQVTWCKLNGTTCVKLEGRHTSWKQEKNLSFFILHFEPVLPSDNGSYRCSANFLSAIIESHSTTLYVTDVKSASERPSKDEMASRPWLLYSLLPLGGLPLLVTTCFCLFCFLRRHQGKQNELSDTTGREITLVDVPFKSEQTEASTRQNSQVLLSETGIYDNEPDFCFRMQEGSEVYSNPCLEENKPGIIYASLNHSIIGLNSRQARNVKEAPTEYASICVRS
Experimental: Blood was then aliquoted into wells and incubated with the indicated concentrations of 6G3-AF647 (APE13766.02), or APC-Mouse Anti-Human CD272 (BTLA) reference antibody (clone J168-540; BD Biosciences) for 30 minutes at room temperature, in the dark. Following incubation, red blood cells were lysed for 10 minutes by addition of 2.0 ml diluted BD Pharm Lyse lysing solution (BD Biosciences), samples centrifuged at 200×g for 5 minutes, washed in FACS Buffer [Dulbecco's PBS, no calcium, no magnesium (Gibco/ThermoFisher Scientific), 25 mM HEPES, pH 7.2, 0.1% BSA, 0.1% sodium azide] and fixed in 4% paraformaldehyde (200 μl/sample) for 10 minutes at room temperature. Samples were washed twice in FACS Buffer and analyzed for fluorescence on a NovoCyte Quanteon flow cytometer (ACEA Biosciences, Inc.). Data were analyzed using NovoExpress Software (ACEA Biosciences, Inc.). Mean fluorescence intensity (MFI) values were graphed and fit with nonlinear regression analyses in GraphPad Prism (GraphPad Software, Inc.). MFI values for each anti-BTLA antibody on total CD3⁺ cells are shown in FIG. 5A; MFI values for each anti-BTLA antibody on total […] are shown in FIG. 5B. […] Binding of each anti-BTLA antibody to CD3⁻ cells in FIG. 5C and FIG. 5D (green cells in the bottom quadrants of each panel) reflects the binding to CD20+ B cells. […]

% of cells in quadrant Q8-2 (CD3+, BTLA stain positive) [1]: 35.8% | % of cells in quadrant Q8-4 (CD3-, BTLA stain positive) [1]: 28% | Total BTLA (% of cells stained) [1]: 63.9%
Molecule: APC-Mouse Anti-Human CD272 (BTLA) reference antibody clone J168-540 (BD Biosciences)

B1: Proteinase 3 (PR3), purified recombinant (protein)
chain: IVGGHEAQPHSRPYMASLQMRGNPGSHFCGGTLIHPSFVLTAAHCLRDIPQRLVNVVLGAHNVRTQEPTQQHFSVAQVFLNNYDAENKLNDVLLIQLSSPANLSASVATVQLPQQDQPVPHGTQCLAMGWGRVGAHDPPAQVLQELNVTVVTFFCRPHNICTFVPRRKAGICFGDSGGPLICDGIIQGIDSFVIWGCATRLFPDFFTRVALYVDWIRSTLR
proteolytic cleavage after co-incubation for up to 60 minutes (gel lanes) [2]: soluble BLTA-ECD was cleaved into multiple smaller fragments

SHP2 recruitment PathHunter Jurkat BTLA signaling assay with U-2 OS hFcγRIa cells, EC50 [3]: 9.3 ng/mL | SHP2 recruitment PathHunter Jurkat BTLA signaling assay, soluble antibody, EC50 [3]: 125 ng/mL | fold change of agonist potency with against without cell-associated FcγRIa [3]: ~13 fold | MFI on B cells relative to MFI on T cells [4]: ~9 fold
B2: 6G3 IgG4 anti-BTLA antibody (antibody, V domains shown)
VH: QVQLVQSGAEVKKPGSSVKVSCKASGYVFSTSWMNWVRQAPGQGLEWMGRIYPGDADTNYVGKFKGRVTITADKSTTTAYMELSSLRSEDTAVYFCAKSGTFNFGNYRWYFDVWGKGTTVTVSS
VL: AIQLTQSPSSLSASVGDRVTITCRVSENIYSHLAWYQQKPGKAPKLLIYAATNLALGVPSRFSGSGSGTDYTLTISSLQPEDFATYYCQLFWGPPLTFGGGTKVEIKR
notes: Humanized, IgG4; also called APE10840; APE10840.03
